The text below walks through data of patent publication US20220162334A1 (SHANGHAI HENLIUS BIOTECH, published 2022).

T1: human CD73 on CD73-expressing human tumor cells (MDA-MB-231, NCI-H292) (human, UniProt P21589 27-549)
T1 construct: whole, on cells; The cell line of each result is named under assay or readout; also called cell surface CD73; surface CD73
T1 sequence (looked up): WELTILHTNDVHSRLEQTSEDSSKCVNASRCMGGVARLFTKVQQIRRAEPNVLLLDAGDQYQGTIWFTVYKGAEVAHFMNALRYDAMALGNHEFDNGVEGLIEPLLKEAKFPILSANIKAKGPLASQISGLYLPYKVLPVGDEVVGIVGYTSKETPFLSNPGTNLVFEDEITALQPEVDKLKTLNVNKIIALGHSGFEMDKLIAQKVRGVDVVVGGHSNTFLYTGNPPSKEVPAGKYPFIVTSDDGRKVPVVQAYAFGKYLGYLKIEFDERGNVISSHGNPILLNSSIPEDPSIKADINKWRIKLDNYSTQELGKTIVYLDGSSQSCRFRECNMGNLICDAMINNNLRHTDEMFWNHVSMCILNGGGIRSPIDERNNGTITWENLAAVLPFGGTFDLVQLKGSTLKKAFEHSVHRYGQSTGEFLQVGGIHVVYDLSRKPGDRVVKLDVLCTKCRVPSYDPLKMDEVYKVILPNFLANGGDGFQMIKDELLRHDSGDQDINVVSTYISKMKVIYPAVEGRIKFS

B1: N2-tmtIgG1 (antibody)
heavy: QVQLQQWGAGLLKPSETLSLTCAVYGGSFSGYYWSWIRQPPGKGLEWIGEINHSGSTNYNPSLKSRVTISVDTSKNQFSLKLSSVTAADTAVYYCARGRYDFWSGYYAYFDYWGQGTLVTVSSASTKGPSVFPLAPSSSTSGGTAALGCLVKDYFPEPVTVSWNSGALTSGVHTFPAVLQSSGLYSLSSVVTVPSSSLGTQTYICNVNHKPSNTKVDKRVEPKSCDKTHTCPPCPAPEFEGGPSVFLFPPKPKDTLMISRTPEVTCVVVDVSHEDPEVKFNWYVDGVEVHNAKTKPREEQYNSTYRVVSVLTVLHQDWLNGKEYKCKVSNKALPASIEKTISKAKGQPREPQVYTLPPSREEMTKNQVSLTCLVKGFYPSDIAVEWESNGQPENNYKTTPPVLDSDGSFFLYSKLTVDKSRWQQGNVFSCSVMHEALHNHYTQKSLSLSPGK
light: LNFMLTQPHSVSESPGKTVTISCTCSGGRIANNYVQWYQQRPGTSPTTVIYEDNLRPSGVPDRFSGSIDRASNSASLTISDLRTEDEAHYYCQSYDSNDGVAFGGGTKLTVLGQPKAAPSVTLFPPSSEELQANKATLVCLISDFYPGAVTVAWKADSSPVKAGVETTTPSKQSNNKYAASSYLSLTPEQWKSHRSYSCQVTHGGSTVEKTVALTECS
notes: Heavy chain assembled from the VH entry and the constant region entry named tmtIgG1; also called lead N2; N2 clone, tmtIgG1 isotype
B2: N2-wtIgG2 (antibody)
heavy: QVQLQQWGAGLLKPSETLSLTCAVYGGSFSGYYWSWIRQPPGKGLEWIGEINHSGSTNYNPSLKSRVTISVDTSKNQFSLKLSSVTAADTAVYYCARGRYDFWSGYYAYFDYWGQGTLVTVSSASTKGPSVFPLAPCSRSTSESTAALGCLVKDYFPEPVTVSWNSGALTSGVHTFPAVLQSSGLYSLSSVVTVPSSNFGTQTYTCNVDHKPSNTKVDKTVERKCCVECPPCPAPPVAGPSVFLFPPKPKDTLMISRTPEVTCVVVDVSHEDPEVQFNWYVDGVEVHNAKTKPREEQFNSTFRVVSVLTVVHQDWLNGKEYKCKVSNKGLPAPIEKTISKTKGQPREPQVYTLPPSREEMTKNQVSLTCLVKGFYPSDIAVEWESNGQPENNYKTTPPMLDSDGSFFLYSKLTVDKSRWQQGNVFSCSVMHEALHNHYTQKSLSLSPGK
light: LNFMLTQPHSVSESPGKTVTISCTCSGGRIANNYVQWYQQRPGTSPTTVIYEDNLRPSGVPDRFSGSIDRASNSASLTISDLRTEDEAHYYCQSYDSNDGVAFGGGTKLTVLGQPKAAPSVTLFPPSSEELQANKATLVCLISDFYPGAVTVAWKADSSPVKAGVETTTPSKQSNNKYAASSYLSLTPEQWKSHRSYSCQVTHGGSTVEKTVALTECS
notes: also called N2 clone, wtIgG2 isotype
B3: N2-mtIgG2 (antibody)
heavy: QVQLQQWGAGLLKPSETLSLTCAVYGGSFSGYYWSWIRQPPGKGLEWIGEINHSGSTNYNPSLKSRVTISVDTSKNQFSLKLSSVTAADTAVYYCARGRYDFWSGYYAYFDYWGQGTLVTVSSASTKGPSVFPLAPCSRSTSESTAALGCLVKDYFPEPVTVSWNSGALTSGVHTFPAVLQSSGLYSLSSVVTVPSSNFGTQTYTCNVDHKPSNTKVDKTVERKSCVECPPCPAPPVAGPSVFLFPPKPKDTLMISRTPEVTCVVVDVSHEDPEVQFNWYVDGVEVHNAKTKPREEQFNSTFRVVSVLTVVHQDWLNGKEYKCKVSNKGLPAPIEKTISKTKGQPREPQVYTLPPSREEMTKNQVSLTCLVKGFYPSDIAVEWESNGQPENNYKTTPPMLDSDGSFFLYSKLTVDKSRWQQGNVFSCSVMHEALHNHYTQKSLSLSPGK
light: LNFMLTQPHSVSESPGKTVTISCTCSGGRIANNYVQWYQQRPGTSPTTVIYEDNLRPSGVPDRFSGSIDRASNSASLTISDLRTEDEAHYYCQSYDSNDGVAFGGGTKLTVLGQPKAAPSVTLFPPSSEELQANKATLVCLISDFYPGAVTVAWKADSSPVKAGVETTTPSKQSNNKYAASSYLSLTPEQWKSHRSYSCQVTHGGSTVEKTVALTECS
notes: also called N2 clone, mtIgG2 isotype; C219S mutant IgG2
B4: N4-tmtIgG1 (antibody)
heavy: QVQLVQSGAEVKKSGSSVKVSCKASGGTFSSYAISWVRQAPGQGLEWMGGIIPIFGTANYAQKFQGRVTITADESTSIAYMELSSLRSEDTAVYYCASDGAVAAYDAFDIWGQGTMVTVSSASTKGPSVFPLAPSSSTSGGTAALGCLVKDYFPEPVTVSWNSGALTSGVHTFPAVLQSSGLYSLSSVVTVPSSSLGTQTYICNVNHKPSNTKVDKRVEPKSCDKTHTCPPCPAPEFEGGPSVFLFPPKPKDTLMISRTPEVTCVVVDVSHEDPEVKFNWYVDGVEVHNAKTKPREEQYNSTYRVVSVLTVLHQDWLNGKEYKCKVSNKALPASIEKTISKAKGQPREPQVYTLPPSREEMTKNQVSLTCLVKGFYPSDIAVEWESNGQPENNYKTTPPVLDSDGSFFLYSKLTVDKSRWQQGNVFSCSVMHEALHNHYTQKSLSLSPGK
light: QAVLTQPSSVSGAPGQRVTISCTGTSSNIGAGYDIHWYQQLPGTAPKLLMYRFTRRPSGVPDRFSGSKSGTSASLTITGLQVEDEADYYCQSYDSGLRGWVFGGGTKLAVLGQPKAAPSVTLFPPSSEELQANKATLVCLISDFYPGAVTVAWKADSSPVKAGVETTTPSKQSNSKYAASSYLSLTPEQWKSHRSYSCQVTHEGSTVEKTVALTECS
notes: Heavy chain assembled from the VH entry and the constant region entry named tmtIgG1; also called lead N4; N4 clone, tmtIgG1 isotype
B5: N4 with wtIgG2 isotype (antibody)
heavy: QVQLVQSGAEVKKSGSSVKVSCKASGGTFSSYAISWVRQAPGQGLEWMGGIIPIFGTANYAQKFQGRVTITADESTSIAYMELSSLRSEDTAVYYCASDGAVAAYDAFDIWGQGTMVTVSSASTKGPSVFPLAPCSRSTSESTAALGCLVKDYFPEPVTVSWNSGALTSGVHTFPAVLQSSGLYSLSSVVTVPSSNFGTQTYTCNVDHKPSNTKVDKTVERKCCVECPPCPAPPVAGPSVFLFPPKPKDTLMISRTPEVTCVVVDVSHEDPEVQFNWYVDGVEVHNAKTKPREEQFNSTFRVVSVLTVVHQDWLNGKEYKCKVSNKGLPAPIEKTISKTKGQPREPQVYTLPPSREEMTKNQVSLTCLVKGFYPSDIAVEWESNGQPENNYKTTPPMLDSDGSFFLYSKLTVDKSRWQQGNVFSCSVMHEALHNHYTQKSLSLSPGK
light: QAVLTQPSSVSGAPGQRVTISCTGTSSNIGAGYDIHWYQQLPGTAPKLLMYRFTRRPSGVPDRFSGSKSGTSASLTITGLQVEDEADYYCQSYDSGLRGWVFGGGTKLAVLGQPKAAPSVTLFPPSSEELQANKATLVCLISDFYPGAVTVAWKADSSPVKAGVETTTPSKQSNSKYAASSYLSLTPEQWKSHRSYSCQVTHEGSTVEKTVALTECS
notes: also called N4-wtIgG2; N4 clone, wtIgG2 isotype
B6: N4 with mtIgG2 isotype (antibody)
heavy: QVQLVQSGAEVKKSGSSVKVSCKASGGTFSSYAISWVRQAPGQGLEWMGGIIPIFGTANYAQKFQGRVTITADESTSIAYMELSSLRSEDTAVYYCASDGAVAAYDAFDIWGQGTMVTVSSASTKGPSVFPLAPCSRSTSESTAALGCLVKDYFPEPVTVSWNSGALTSGVHTFPAVLQSSGLYSLSSVVTVPSSNFGTQTYTCNVDHKPSNTKVDKTVERKSCVECPPCPAPPVAGPSVFLFPPKPKDTLMISRTPEVTCVVVDVSHEDPEVQFNWYVDGVEVHNAKTKPREEQFNSTFRVVSVLTVVHQDWLNGKEYKCKVSNKGLPAPIEKTISKTKGQPREPQVYTLPPSREEMTKNQVSLTCLVKGFYPSDIAVEWESNGQPENNYKTTPPMLDSDGSFFLYSKLTVDKSRWQQGNVFSCSVMHEALHNHYTQKSLSLSPGK
light: QAVLTQPSSVSGAPGQRVTISCTGTSSNIGAGYDIHWYQQLPGTAPKLLMYRFTRRPSGVPDRFSGSKSGTSASLTITGLQVEDEADYYCQSYDSGLRGWVFGGGTKLAVLGQPKAAPSVTLFPPSSEELQANKATLVCLISDFYPGAVTVAWKADSSPVKAGVETTTPSKQSNSKYAASSYLSLTPEQWKSHRSYSCQVTHEGSTVEKTVALTECS
notes: also called N4-mtIgG2; N4 clone, mtIgG2 isotype

The target in the first test is T1, human CD73 on CD73-expressing human …. Nature of the test: flow cytometry on MDA-MB-231 cells, biotin-labeled antibody, streptavidin-FITC (FIG. 5B). On the procedure: (§1) The binding of anti-CD73 antibodies to cell surface CD73 were tested by incubating the MDA-MB-231 cells with the serially diluted biotin-labeled anti-CD73 antibodies in FACS buffer (PBS with 2% FBS) at 4° C. for 30 minutes. The cells were washed with FACS buffer and the binding was detected with streptavidin-FITC at 4° C. for 30 minutes. Flow cytometric analyses were performed using the Cytomics FC500 (Beckman Coulter Inc.).
(§2) The variable sequences of N1, N2 and N4 were cloned into human wild-type or C219S mutant IgG2 Fc backbone. Different IgG isotypes of N1 (FIG. 5A), N2 (FIG. 5B), N4 (FIG. 5C) were tested the binding to CD73-expressing human MDA-MB-231 cells by flow cytometry. Anti-CD73 ref-1 antibody and HLX01 (anti-CD20) were used as the positive and negative control respectively.
As for B1, the binding result is given as “binds”.

For the molecule B2, the binding result is recorded as “binds”.

B3: the binding result is given as “binds”.

Another test has the same target. Nature of the test: flow cytometry on MDA-MB-231 cells, biotin-labeled antibody, streptavidin-FITC (FIG. 5C). Here is the method: as §1, §2
Take B4: the binding result is reported as “binds”.

As to B5, the binding result is “binds”. Still for that read-out and setting: the result for B6 reads “binds”.
